Test results published in patent US20090130195A1 (UNIVERSITY OF SOUTH FLORIDA, published 2009).

Target: T1, protein kinase C-iota (PKC-ι) (human, UniProt P41743 2-596)
T1 construct: Endogenous protein immunoprecipitated or blotted from cell lysates; also called PKC-i
T1 sequence (looked up): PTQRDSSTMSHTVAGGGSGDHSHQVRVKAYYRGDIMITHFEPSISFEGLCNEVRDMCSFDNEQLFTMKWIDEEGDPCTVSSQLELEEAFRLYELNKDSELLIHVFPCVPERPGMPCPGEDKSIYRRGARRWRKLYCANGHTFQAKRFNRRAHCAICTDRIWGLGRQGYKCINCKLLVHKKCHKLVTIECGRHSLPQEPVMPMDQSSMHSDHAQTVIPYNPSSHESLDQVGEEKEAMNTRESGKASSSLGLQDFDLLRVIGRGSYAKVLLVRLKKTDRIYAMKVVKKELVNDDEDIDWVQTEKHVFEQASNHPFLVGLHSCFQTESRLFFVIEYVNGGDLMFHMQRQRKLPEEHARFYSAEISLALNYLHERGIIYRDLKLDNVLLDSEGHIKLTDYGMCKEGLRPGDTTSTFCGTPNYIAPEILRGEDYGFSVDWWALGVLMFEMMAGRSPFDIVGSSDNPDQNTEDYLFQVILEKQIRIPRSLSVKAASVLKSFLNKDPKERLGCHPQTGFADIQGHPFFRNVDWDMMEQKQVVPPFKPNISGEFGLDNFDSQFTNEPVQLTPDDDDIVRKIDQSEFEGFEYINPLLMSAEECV
Assay: Immunoprecipitation of Bad (200 µg protein) from RWPE-1 and DU-145 cells treated with control siRNA or PKC-ι siRNA, then immunoblot
Procedure: PKC-ι is overexpressed in non-small cell lung cancer cells (NSCLC) and it has been reported to phosphorylate Bad at multiple sites for cell survival. To test whether PKC-ι can directly phosphorylate endogenous Bad, Bad protein (200 μg) was immunoprecipitated from control siRNA and PKC-ι siRNA treated (incubation time 24 h) RWPE-1 and DU-145 cells. Normal rabbit IgG agarose conjugate (5 μg) was used as a negative control.
A similar experiment was performed with DU-145 (FIG. 8A, third column). First, we investigated if PKC-ι associates with Bad. […] However, we observed an increase in phosphorylation of Bad ser-112, no significant changes in p-Bad (ser-136) and p-Bad (ser-155).

B1: Bad (other, UniProt Q92934 1-168, looked up)
chain: MFQIPEFEPSEQEDSSSAERGLGPSPAGDGPSGSGKHHRQAPGLLWDASHQQEQPTSSSHHGGAGAVEIRSRHSSYPAGTEDDEGMGEEPSPFRGRSRSAPPNLWAAQRYGRELRRMSDEFVDSFKKGLPRPKSAGTATQMRQSSSWTRVFQSWWDRNLGRGSSAPSQ
notes: Endogenous protein from human prostate cell lines; Its phosphorylation (ser-112, ser-136, ser-155) varies with cell line and treatment; also called Bad protein
Q: Does B1 bind?
A: no binding
